Substrate in data set [1]: Nc1ncnc2c1ncn2[C@@H]1O[C@H](COP(=O)(O)OP(=O)(O)O)[C@@H](O)[C@H]1O
Kind of data set: purified protein. It is filed as biochemical, Trichinella spiralis. Particulars: co-substrate PEP, Tris-HCl pH 8.0, 37°C.

Substrate in data set [2]: C=C(OP(=O)(O)O)C(=O)O
Kind of data set: purified protein. To be noted: co-substrate ADP, Tris-HCl pH 8.0, 37°C. The format is biochemical, Trichinella spiralis.

B1: rTsPKM (recombinant T. spiralis pyruvate kinase M) (Trichinella spiralis) (protein)
chain: MSEKQSQKSRKLAKVAAIPAKTTLEHLCRLDTDHSVEKLVSKTGLICTIGPASCSVETLTKMIQAGMTIARLNFSHGSHDYHAQTVANIRKAVDSLAASGNGKVVAIALDTKGPEIRTGYLAVGSNEEVVVEANSAVRVTVDSGMKFRCTESLIYVDYENMPKVVSKGSKIYIDDGLISLLVNEVADNHLDCVVEHGGKLGSCKGVNLPDCEVDLPAVSEKDAQDLQFAVKHQCDMVFASFVRSAEAVRQIRQTLGVEGRGIKIVAKIENRQGIANVDSIIEEADGVMIARGDLGIEIPAEQVFVAQKAIIAKCRLAGKPAICATQMLESMVDKARPTRAEITDVANAVLDGADCVMLSGETAKGRHPVQAVRTMHQICCQAESVFFQKHFFDELQAMLPRPMNAMDTIAFAVTTAAANCNASAIILLTNTGASAVALSKCRPSSMIISVVKKEQTARYLRLYSGILPCVYDSKNSSSSSPNAVVDWVTSVDQRINYAILFGKKERIIHDGDNVIVVNGWREGPGHTNTIRIFAVEPLIPRP
As for B1, the Michaelis constant (Km) was 3330 µM in “purified protein [1]” and 1510 µM in “purified protein [2]”.
